# Experimental data published in patent publication US20140080161A1, “PHOSPHATASE COUPLED KINASE ASSAY” (RESEARCH AND DIAGNOSTIC SYSTEMS, INC., priority 2010, published 2014).
# B1: rhCD39L2: recombinant human CD39L2, nucleotide phosphatase preferring ADP over ATP, used for coupling (protein, UniProt O75354 1-484, looked up)
# Ectonucleoside triphosphate …: MKKGIRYETSRKTSYIFQQPQHGPWQTRMRKISNHGSLRVAKVAYPLGLCVGVFIYVAYIKWHRATATQAFFSITRAAPGARWGQQAHSPLGTAADGHEVFYGIMFDAGSTGTRVHVFQFTRPPRETPTLTHETFKALKPGLSAYADDVEKSAQGIRELLDVAKQDIPFDFWKATPLVLKATAGLRLLPGEKAQKLLQKVKKVFKASPFLVGDDCVSIMNGTDEGVSAWITINFLTGSLKTPGGSSVGMLDLGGGSTQIAFLPRVEGTLQASPPGYLTALRMFNRTYKLYSYSYLGLGLMSARLAILGGVEGQPAKDGKELVSPCLSPSFKGEWEHAEVTYRVSGQKAAASLHELCAARVSEVLQNRVHRTEEVKHVDFYAFSYYYDLAAGVGLIDAEKGGSLVVGDFEIAAKYVCRTLETQPQSSPFSCMDLTYVSLLLQEFGFPRSKVLKLTRKIDNVETSWALGAIFHYIDSLNRQKSPAS
# Columns and labels:
# [1] = enzyme as obtained from R&D Systems; cited from earlier work
# [2] = Coupling efficiency: ADP hydrolysis in presence versus absence of ATP; type: biochemical; details: for Slope of ADP Hydrolysis Curve (Si): 0.2 μg rhCD39L2, 20 minutes
# Source text: The coupling efficiency of a phosphatase may be determined by measuring the rates of ADP hydrolysis in the presence of ATP, and in the absence of ATP, under conditions which are otherwise the same. The coupling efficiency is the ratio of the ADP hydrolysis rate in the presence of ATP to the ADP hydrolysis rate in the absence of ATP. As exemplified in Example 3 (FIG. 4), the coupling efficiency in the presence of i mM of ATP, Ci, is equal to the ratio of the slope of the corresponding ADP hydrolysis curve in the presence of i mM of ATP, Si, to the slope of the ADP hydrolysis curve in the absence of ATP, So. The coupling efficiency may be characterized by the following formula: […]
# The coupling efficiency will vary depending upon the concentration of ATP. As such, the Ci may be calculated at various ATP concentrations and the results may be plotted to give a curve of coupling efficiency versus ATP concentration. In this way, the coupling efficiency may be determined for any concentration of ATP, such as the beginning concentration of ATP used in a reaction. The coupling efficiency can be obtained once the conditions for a kinase reaction are determined and may then be used to adjust the final measured kinase activity depending upon the ATP concentration. For example, the final measured ADP production may be divided by the coupling efficiency (assuming that the ATP concentration throughout the reaction is approximately constant) in order to calculate the actual ADP production. The coupling efficiency allows for measuring the kinase activity even at high levels of ATP, such as at intracellular ATP concentration levels, about 1 mM, which may be most biologically relevant for some reactions.
# This experiment measured the coupling efficiency of CD39L2, which was the ratio of the rate of ADP hydrolysis in the presence of ATP to the rate of ADP hydrolysis in the absence of ATP, under conditions which were otherwise identical. In a series of reactions, increasing amounts of ADP (0 to 15 nmol, within the coupling capacity) were hydrolyzed with 0.2 μg of rhCD39L2 in the presence of various concentrations of ATP (0, 0.156, 0.312, 0.625, 1.25, 2.5, or 5 mM). The reactions were stopped after 20 minutes and the Malachite Green assay was performed and OD readings were taken at 620 nm.
# Coupling efficiency in the presence of i mM of ATP (Ci) was determined from the ratio of the slope of the ADP hydrolysis curve in the presence of i mM ATP (Si) to the slope of the ADP hydrolysis curve in the absence of ATP (S0) according to Equation 1. For each concentration of ATP, Ci was calculated. […] The coupling efficiency may then be used to correct the data obtained for any competitive inhibition that might be caused by the ATP, especially at high concentrations of ATP.
# [3] = Specific activity of the phosphatase (free phosphate released per time per amount); type: biochemical
# Source text: Phosphatases used in embodiments of the invention have a high specific activity on ADP. The specific activity of the phosphatase used in the examples is the amount of free phosphate released from a substrate per unit time and per amount of phosphatase under a given set of conditions, and may be determined at the rising phase of an enzymatic dose curve, such as the hydrolysis curve as described above. In some embodiments, the phosphatase has a specific activity of greater than 100 pmol/min/μg under optimal conditions. The conditions may include optimal pH, salt concentrations, and the presence of any cofactor. In other embodiments, the phosphatase has a specific activity of greater than 1,000 pmol/min/μg. In still other embodiments, the phosphatase has a specific activity of greater than 20,000 pmol/min/μg. When phosphatases having lower specific activity are used, larger amounts of such phosphatases or longer reaction times may be used to achieve the same level of hydrolysis as can be achieved with a phosphatase having higher specific activity.
# [4] = Coupling capacity of the phosphatase (ADP completely hydrolyzed); type: biochemical; details: 0.2 μg phosphatase
# Source text: Phosphatases useful in embodiments of the invention are preferably able to completely hydrolyze all of the ADP generated in a kinase reaction. The amount of complete hydrolysis which can be performed by a phosphatase under a set of reaction conditions may be characterized as the coupling capacity of the phosphatase. As such, the coupling capacity represents the amount of ADP that can be completely hydrolyzed by a given amount of a phosphatase under specific conditions. Coupling capacity may be determined by performing a series of reactions, combining a set amount of phosphatase with increasing amounts of ADP. The reactions may be performed for various lengths of time, with different coupling capacities as a result. The desired reaction time and amount of phosphatase to be used in kinase reactions can then be selected such that the corresponding coupling capacity is greater than the anticipated amount of ADP produced in the kinase reaction. Coupling capacity can be determined as the maximum amount of ADP that is completely hydrolyzed by a given amount of phosphatase in FIG. 3. […] At this level of ADP production, the amount of phosphatase is therefore adequate. However, as the level of ADP produced increases beyond the capacity for a given amount of phosphatase, hydrolysis may not be complete. At this point, coupling capacity is not adequate for the ADP production during a kinase reaction, and the hydrolysis curve diverges and falls below the phosphate standard curve. […]
# In order to provide a measurement of kinase activity, the phosphatase needs to be able to completely hydrolyze all ADP generated by the kinase reaction. In this example, the coupling capacity was determined by performing three series of reactions combining 0.2 μg rhCD39L2 with increasing amounts of ADP (3.125, 6.25, 12.5, 25, 50, and 100 nmols), with each series of reactions allowed to run for various lengths of time 10, 20 or 40 minutes. The reactions were stopped and free phosphate was measured using the Malachite Green assay as described above. […]
molecule,measurement,setting,value
B1,specific activity,[1],"> 20,000 pmol/min/μg"
same,coupling efficiency,"[2]; 0.2 mM ATP, based on data of Example 3",0.9
same,coupling efficiency,"[2]; 2 mM ATP, based on data of Example 3",0.51
same,coupling efficiency,"[2]; 4 mM ATP, predicted from data of Example 3 (FIG. 5)",0.4
same,Coupling Efficiency (Ci),[2]; ATP 0 mM,1.00
same,Slope of ADP Hydrolysis Curve (Si),[2]; ATP 0 mM,0.280
same,Coupling Efficiency (Ci),[2]; ATP 0.156 mM,0.97
same,Slope of ADP Hydrolysis Curve (Si),[2]; ATP 0.156 mM,0.271
same,Coupling Efficiency (Ci),[2]; ATP 0.312 mM,0.74
same,Slope of ADP Hydrolysis Curve (Si),[2]; ATP 0.312 mM,0.207
same,Coupling Efficiency (Ci),[2]; ATP 0.625 mM,0.61
same,Slope of ADP Hydrolysis Curve (Si),[2]; ATP 0.625 mM,0.170
same,Coupling Efficiency (Ci),[2]; ATP 1.25 mM,0.56
same,Slope of ADP Hydrolysis Curve (Si),[2]; ATP 1.25 mM,0.157
same,Coupling Efficiency (Ci),[2]; ATP 2.50 mM,0.48
same,Slope of ADP Hydrolysis Curve (Si),[2]; ATP 2.50 mM,0.134
same,Coupling Efficiency (Ci),[2]; ATP 5.0 mM,0.34
same,Slope of ADP Hydrolysis Curve (Si),[2]; ATP 5.0 mM,0.096
same,specific activity on ADP,[3],"> 20,000 pmol/min/μg"
same,coupling capacity,[4]; 10 minute reaction,10 nmole of ADP
same,coupling capacity,[4]; 20 minute reaction,20 nmole of ADP
same,coupling capacity,[4]; 40 minute reaction,100 nmole of ADP
